According to US20200024322A1 (Eli Lilly, published 2020):
Where a chain is given by its changes, count along the chain named. Numbered stars: 1 amine (or outer) side, 2 acyl side, 3 side chain; on linkers, the order of the positions; unused ones are H or OH. Square brackets hold non-standard residues; d marks the D form. Side chains are listed from the residue outwards. Ends that are not written are not given here. * marks the point of attachment. C18 diacid = O=C(O)CCCCCCCCCCCCCCCCC(=O)*; γGlu = O=C(O)[C@H](CCC(=O)[*:2])N[*:1]; AEEA = NCCOCCOCC(=O)O; Aib = CC(C)(N)C(=O)O

T1: human gastric inhibitory peptide receptor (GIPR) (human, UniProt P48546 22-466)
T1 sequence (looked up): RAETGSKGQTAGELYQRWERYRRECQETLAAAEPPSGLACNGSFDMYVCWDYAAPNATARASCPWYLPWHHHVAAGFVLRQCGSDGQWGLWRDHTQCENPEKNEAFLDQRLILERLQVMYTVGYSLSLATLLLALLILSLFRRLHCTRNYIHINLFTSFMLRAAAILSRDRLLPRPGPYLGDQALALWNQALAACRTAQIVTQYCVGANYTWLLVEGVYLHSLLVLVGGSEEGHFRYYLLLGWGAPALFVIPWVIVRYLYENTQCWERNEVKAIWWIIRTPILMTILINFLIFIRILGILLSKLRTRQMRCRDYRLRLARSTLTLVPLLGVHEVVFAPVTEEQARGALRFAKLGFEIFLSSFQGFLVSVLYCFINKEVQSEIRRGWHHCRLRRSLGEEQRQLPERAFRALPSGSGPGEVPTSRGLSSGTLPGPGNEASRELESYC

T2: human GIP receptor (human, UniProt P48546 22-466)
T2 construct: whole, on cells; also called hGIPR; hGIP-R
T2 sequence (looked up): T1 sequence (looked up)

B1: Example 335 (peptide)
peptide: XXEGTXTSDYSIXLDKKAQXAFIEYLIEGGPSSGAPPPS
modifications: D-Tyr1; Aib2; αMeF6; αMeL13; K17((2-[2-(2-Amino-ethoxy)-ethoxy]-acetyl)2-(γ-Glu)-CO-(CH2)18-CO2H); Aib20; C-terminal NH2
B2: Example 358 (peptide)
peptide: B1 peptide with X6F, K16X, I23V, E28A
modifications: D-Tyr1; Aib2; αMeL13; Orn16; K17((2-[2-(2-Amino-ethoxy)-ethoxy]-acetyl)2-(γ-Glu)-CO-(CH2)18-CO2H); Aib20; C-terminal NH2
B3: Example 293 (peptide)
peptide: XXEGTFTSDYSIXLDXKAQXEFIEXLIAGGPSSGAPPPS
modifications: D-Tyr1; Aib2; αMeL13; Orn16; K17((2-[2-(2-Amino-ethoxy)-ethoxy]-acetyl)2-(γ-Glu)-CO-(CH2)18-CO2H); Aib20; αMeY25; C-terminal NH2
B4: Example 336 (peptide)
peptide: B1 peptide
modifications: D-Tyr1; Aib2; αMeF(2F)6; αMeL13; K17((2-[2-(2-Amino-ethoxy)-ethoxy]-acetyl)2-(γ-Glu)-CO-(CH2)18-CO2H); Aib20; C-terminal NH2
B5: Example 329 (peptide)
peptide: B1 peptide with X13L
modifications: D-Tyr1; Aib2; αMeF6; K17((2-[2-(2-Amino-ethoxy)-ethoxy]-acetyl)2-(γ-Glu)-CO-(CH2)18-CO2H); Aib20; C-terminal NH2
B6: Example 360 (peptide)
peptide: B1 peptide with X6F, K16X, I23V
modifications: D-Tyr1; Aib2; αMeL13; Orn16; K17((2-[2-(2-Amino-ethoxy)-ethoxy]-acetyl)2-(γ-Glu)-CO-(CH2)18-CO2H); Aib20; C-terminal NH2
B7: Example 334 (peptide)
peptide: B1 peptide with X6F
modifications: D-Tyr1; Aib2; αMeL13; K17((2-[2-(2-Amino-ethoxy)-ethoxy]-acetyl)2-(γ-Glu)-CO-(CH2)18-CO2H); Aib20; C-terminal NH2
B8: Example 346 (peptide)
peptide: B3 peptide with E21A, X25Y
modifications: D-Tyr1; Aib2; αMeL13; Orn16; K17((2-[2-(2-Amino-ethoxy)-ethoxy]-acetyl)2-(γ-Glu)-CO-(CH2)18-CO2H); Aib20; C-terminal NH2
B9: Example 341 (peptide)
peptide: B3 peptide with X16E, E21A, X25Y
modifications: D-Tyr1; Aib2; αMeL13; K17((2-[2-(2-Amino-ethoxy)-ethoxy]-acetyl)2-(γ-Glu)-CO-(CH2)18-CO2H); Aib20; C-terminal NH2
B10: Example 316 (peptide)
peptide: Y[Aib]EGTFTSDYSILLDKK([AEEA-AEEA-γGlu-C18 diacid])AQ[Aib]AFIEYLIAGGPSSGAPPPS-NH2
modifications: N-terminus assumed
SMILES: CC[C@H](C)[C@H](NC(=O)[C@H](CC(C)C)NC(=O)[C@H](Cc1ccc(O)cc1)NC(=O)[C@H](CCC(=O)O)NC(=O)[C@@H](NC(=O)[C@H](Cc1ccccc1)NC(=O)[C@H](C)NC(=O)C(C)(C)NC(=O)[C@H](CCC(N)=O)NC(=O)[C@H](C)NC(=O)[C@H](CCCCNC(=O)COCCOCCNC(=O)COCCOCCNC(=O)CC[C@H](NC(=O)CCCCCCCCCCCCCCCCC(=O)O)C(=O)O)NC(=O)[C@H](CCCCN)NC(=O)[C@H](CC(=O)O)NC(=O)[C@H](CC(C)C)NC(=O)[C@H](CC(C)C)NC(=O)[C@@H](NC(=O)[C@H](CO)NC(=O)[C@H](Cc1ccc(O)cc1)NC(=O)[C@H](CC(=O)O)NC(=O)[C@H](CO)NC(=O)[C@@H](NC(=O)[C@H](Cc1ccccc1)NC(=O)[C@@H](NC(=O)CNC(=O)[C@H](CCC(=O)O)NC(=O)C(C)(C)NC(=O)[C@@H](N)Cc1ccc(O)cc1)[C@@H](C)O)[C@@H](C)O)[C@@H](C)CC)[C@@H](C)CC)C(=O)N[C@@H](C)C(=O)NCC(=O)NCC(=O)N1CCC[C@H]1C(=O)N[C@@H](CO)C(=O)N[C@@H](CO)C(=O)NCC(=O)N[C@@H](C)C(=O)N1CCC[C@H]1C(=O)N1CCC[C@H]1C(=O)N1CCC[C@H]1C(=O)N[C@@H](CO)C(N)=O
B11: Example 292 (peptide)
peptide: B3 peptide with X16K
modifications: D-Tyr1; Aib2; αMeL13; K17((2-[2-(2-Amino-ethoxy)-ethoxy]-acetyl)2-(γ-Glu)-CO-(CH2)18-CO2H); Aib20; αMeY25; C-terminal NH2
B12: Example 367 (peptide)
peptide: B3 peptide with X1Y, X16K
modifications: Aib2; αMeL13; K17((2-[2-(2-Amino-ethoxy)-ethoxy]-acetyl)2-(γ-Glu)-CO-(CH2)18-CO2H); Aib20; αMeY25; C-terminal NH2
B13: (D-Tyr)-Aib-EGTFTSDYSI-αMeL-LD-Orn-K((2-[2-(2-Amino-ethoxy)-ethoxy]-acetyl)2-(γ-Glu)-CO-(CH2)18-CO2H)AQ-Aib-AFVEYLIEGGPSSGAPPPS-NH2 (peptide)
peptide: B1 peptide with X6F, K16X, I23V
modifications: D-Tyr1; Aib2; αMeL13; Orn16; K17 conjugated to (2-[2-(2-Amino-ethoxy)-ethoxy]-acetyl)2-(γ-Glu)-CO-(CH2)18-CO2H; Aib20; C-terminal amide (NH2)
B14: (D-Tyr)-Aib-EGTFTSDYSI-αMeL-LD-Orn-K((2-[2-(2-Amino-ethoxy)-ethoxy]-acetyl)2-(D-(γ-Glu)-CO-(CH2)16-CO2H)AQ-Aib-AFI-Glu)-YLIAGGPSSGAPPPS-NH2 (peptide)
peptide: B3 peptide with E21A, E24X, X25Y
modifications: D-Tyr1; Aib2; αMeL13; Orn16; K17 conjugated to (2-[2-(2-Amino-ethoxy)-ethoxy]-acetyl)2-(γ-Glu)-CO-(CH2)16-CO2H; Aib20; C-terminal amide (NH2)
B15: (D-Tyr)-Aib-EGTFTSDYSI-αMeL-LD-Orn-K((2-[2-(2-Amino-ethoxy)-ethoxy]-acetyl)2-(γ-Glu)-CO-(CH2)18-CO2H)AQ-Aib-AFV-(D-Glu)-YLIAGGPSSGAPPPS-NH2 (peptide)
peptide: B3 peptide with E21A, I23V, E24X, X25Y
modifications: D-Tyr1; Aib2; αMeL13; Orn16; K17 conjugated to (2-[2-(2-Amino-ethoxy)-ethoxy]-acetyl)2-(γ-Glu)-CO-(CH2)18-CO2H; Aib20; D-Glu24; C-terminal amide (NH2)
B16: (D-Tyr)-Aib-EGTFTSDYSI-αMeL-LDKK((2-[2-(2-Amino-ethoxy)-ethoxy]-acetyl)2-(γ-Glu)-CO-(CH2)18-CO2H)AQ-Aib-AFV-(D-Glu)-YLIAGGPSSGAPPPS-NH2 (peptide)
peptide: B1 peptide with X6F, I23V, E24X, E28A
modifications: D-Tyr1; Aib2; αMeL13; K17 conjugated to (2-[2-(2-Amino-ethoxy)-ethoxy]-acetyl)2-(γ-Glu)-CO-(CH2)18-CO2H; Aib20; D-Glu24; C-terminal amide (NH2)

target: T3, human glucagon receptor (human, UniProt P47871 26-477); assay: [125I]-Gcg competition SPA, hGcgR membranes
T3 construct: whole, on cells; also called hGcgR; GcgR
T3 sequence (P47871 26-477): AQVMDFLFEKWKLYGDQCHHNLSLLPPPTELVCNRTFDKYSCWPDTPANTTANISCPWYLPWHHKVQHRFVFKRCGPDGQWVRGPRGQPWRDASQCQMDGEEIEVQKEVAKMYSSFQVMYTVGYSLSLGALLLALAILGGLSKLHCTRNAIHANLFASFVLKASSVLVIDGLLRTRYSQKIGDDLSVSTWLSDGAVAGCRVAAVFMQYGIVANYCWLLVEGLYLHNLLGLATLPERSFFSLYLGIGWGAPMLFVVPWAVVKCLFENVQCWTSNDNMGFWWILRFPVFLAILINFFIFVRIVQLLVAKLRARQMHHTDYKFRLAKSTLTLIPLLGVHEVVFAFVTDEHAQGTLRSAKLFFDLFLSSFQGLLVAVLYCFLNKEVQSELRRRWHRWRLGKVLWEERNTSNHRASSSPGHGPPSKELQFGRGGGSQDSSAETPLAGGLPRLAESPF

Point of comparison: B4, Ki 17.1 nM. Against it:
- B1 — 1.6-fold higher, 27.1 nM
- B2 — 54-fold higher, 915 nM
- B3 — 39-fold higher, 668 nM
- B5 — within 1.5-fold, 17 nM
- B6 — 28-fold higher, 485 nM
- B7 — 11-fold higher, 192 nM
- B8 — 18-fold higher, 310 nM
- B9 — 2.3-fold higher, 39.7 nM
- B10 — 38-fold higher, 654 nM
- B11 — 35-fold higher, 595 nM
- B12 — 45-fold higher, 777 nM

target: human GLP-1 receptor (GLP-1R) (human, UniProt P43220 24-463); assay: cell-based or functional assay

Point of comparison: B15, “hGLP1R cAMP EC50 ratio” value 0.0805. Against it:
- B13 — higher, 0.171
- B14 — higher, 0.146
- B16 — lower, 0.0259

target: T1, human gastric inhibitory peptide …; assay: cell-based or functional assay

Point of comparison: B15, “hGIPR cAMP EC50 ratio” value 0.347. Against it:
- B13 — higher, 0.53
- B14 — higher, 0.835
- B16 — lower, 0.261

target: T4, human GLP-1 receptor (human, UniProt P43220 24-463); assay: [125I]-GLP-1 competition SPA, hGLP-1R membranes
T4 construct: whole, on cells; also called hGLP-1R; hGLP1R
Procedure, shortened: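 Competition binding in 25 mM HEPES pH 7.4, 2.5 mM CaCl₂, 1 mM MgCl₂, 0.1% bacitracin, 0.003% TWEEN-20, EDTA-free protease inhibitors. IC₅₀ from four-parameter nonlinear fit; Kᵢ given as geometric mean ± SEM, n = independent replicates on different days.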

Point of comparison: B12, Ki 0.809 nM. Against it:
- B1 — 3.1-fold higher, 2.54 nM
- B2 — 1.7-fold higher, 1.37 nM
- B3 — 2-fold higher, 1.64 nM
- B4 — 3-fold higher, 2.44 nM
- B5 — 4.1-fold higher, 3.28 nM
- B6 — 2.2-fold higher, 1.74 nM
- B7 — 2.7-fold higher, 2.17 nM
- B8 — 2.1-fold higher, 1.67 nM
- B9 — 8-fold higher, 6.49 nM
- B10 — within 1.5-fold, 0.957 nM
- B11 — within 1.5-fold, 1.19 nM

target: T2, human GIP receptor; assay: [125I]-GIP competition SPA, hGIPR membranes

Point of comparison: B6, Ki 0.128 nM. Against it:
- B1 — 2.9-fold lower, 0.0444 nM
- B2 — 2-fold lower, 0.0636 nM
- B3 — 1.7-fold lower, 0.0775 nM
- B4 — 4.6-fold lower, 0.0277 nM
- B5 — 2.9-fold lower, 0.0439 nM
- B7 — 2-fold lower, 0.0646 nM
- B8 — 2.3-fold lower, 0.0559 nM
- B9 — 2.3-fold lower, 0.0559 nM
- B10 — 3.1-fold lower, 0.0418 nM
- B11 — 2.3-fold lower, 0.0547 nM
- B12 — 4.5-fold lower, 0.0282 nM
